T1: recombinant cynomolgus C1r2s2 tetramer (cynomolgus monkey, limits assumed)
T1 construct: also called cyC1r2s2; monkey C1r2s2
T1 chain 1: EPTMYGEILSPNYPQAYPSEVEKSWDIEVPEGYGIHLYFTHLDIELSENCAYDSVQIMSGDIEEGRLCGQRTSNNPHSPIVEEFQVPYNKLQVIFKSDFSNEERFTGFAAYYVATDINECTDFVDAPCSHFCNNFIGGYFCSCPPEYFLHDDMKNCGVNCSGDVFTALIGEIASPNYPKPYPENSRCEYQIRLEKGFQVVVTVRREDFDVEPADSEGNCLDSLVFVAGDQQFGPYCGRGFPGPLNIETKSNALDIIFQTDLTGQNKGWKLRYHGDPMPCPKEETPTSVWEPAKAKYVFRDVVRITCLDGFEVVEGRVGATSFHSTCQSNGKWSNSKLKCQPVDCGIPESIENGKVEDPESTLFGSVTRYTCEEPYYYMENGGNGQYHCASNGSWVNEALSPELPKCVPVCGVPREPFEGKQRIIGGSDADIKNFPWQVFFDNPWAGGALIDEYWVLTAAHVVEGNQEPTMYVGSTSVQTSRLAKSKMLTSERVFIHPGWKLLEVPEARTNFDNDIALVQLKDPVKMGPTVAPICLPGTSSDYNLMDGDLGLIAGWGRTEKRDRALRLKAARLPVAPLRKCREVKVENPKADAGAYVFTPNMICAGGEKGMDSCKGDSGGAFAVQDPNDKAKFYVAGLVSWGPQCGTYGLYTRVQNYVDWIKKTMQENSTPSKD
T1 chain 2: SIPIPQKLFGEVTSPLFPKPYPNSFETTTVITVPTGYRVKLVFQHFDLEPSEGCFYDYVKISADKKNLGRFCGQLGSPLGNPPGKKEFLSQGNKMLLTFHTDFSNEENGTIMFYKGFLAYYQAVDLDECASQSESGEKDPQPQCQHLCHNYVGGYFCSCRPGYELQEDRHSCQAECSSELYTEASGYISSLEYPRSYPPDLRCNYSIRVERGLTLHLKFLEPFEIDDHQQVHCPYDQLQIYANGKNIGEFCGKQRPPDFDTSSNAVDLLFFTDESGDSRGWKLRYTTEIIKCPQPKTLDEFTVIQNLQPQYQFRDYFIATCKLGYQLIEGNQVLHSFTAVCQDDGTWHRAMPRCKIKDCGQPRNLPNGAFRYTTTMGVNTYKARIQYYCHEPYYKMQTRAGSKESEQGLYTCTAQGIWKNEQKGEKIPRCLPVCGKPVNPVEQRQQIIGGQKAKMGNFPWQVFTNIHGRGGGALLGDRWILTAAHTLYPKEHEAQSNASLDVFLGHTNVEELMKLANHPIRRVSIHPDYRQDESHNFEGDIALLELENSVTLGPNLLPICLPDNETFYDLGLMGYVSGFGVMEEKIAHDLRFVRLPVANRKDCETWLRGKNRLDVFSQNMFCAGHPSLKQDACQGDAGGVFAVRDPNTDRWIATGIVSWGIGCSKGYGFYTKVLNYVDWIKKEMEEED

T2: recombinant human C1r2s2 tetramer (human, UniProt P09871 16-688; P00736 18-705)
T2 construct: C1s and C1r co-expressed in HEK293 and purified from the supernatant as tetramer; also called hC1r2s2
T2 chain 1: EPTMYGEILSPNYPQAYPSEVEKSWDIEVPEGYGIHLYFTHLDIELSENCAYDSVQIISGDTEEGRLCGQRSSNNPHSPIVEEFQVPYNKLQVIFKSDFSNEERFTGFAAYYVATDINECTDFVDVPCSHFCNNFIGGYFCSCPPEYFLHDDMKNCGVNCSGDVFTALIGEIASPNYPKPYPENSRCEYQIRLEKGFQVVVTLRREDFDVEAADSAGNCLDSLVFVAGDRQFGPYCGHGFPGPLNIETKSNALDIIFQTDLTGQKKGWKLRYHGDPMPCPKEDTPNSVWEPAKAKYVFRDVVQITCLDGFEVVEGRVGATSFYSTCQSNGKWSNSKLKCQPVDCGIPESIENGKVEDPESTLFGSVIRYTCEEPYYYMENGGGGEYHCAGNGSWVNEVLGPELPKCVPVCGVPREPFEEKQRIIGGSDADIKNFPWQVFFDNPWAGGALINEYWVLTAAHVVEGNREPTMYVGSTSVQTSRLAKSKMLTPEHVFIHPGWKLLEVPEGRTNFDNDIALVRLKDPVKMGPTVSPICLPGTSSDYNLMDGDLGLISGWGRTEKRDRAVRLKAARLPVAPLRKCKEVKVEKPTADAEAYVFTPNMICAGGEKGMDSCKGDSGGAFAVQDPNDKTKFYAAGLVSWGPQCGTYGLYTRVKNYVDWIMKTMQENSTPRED
T2 chain 2: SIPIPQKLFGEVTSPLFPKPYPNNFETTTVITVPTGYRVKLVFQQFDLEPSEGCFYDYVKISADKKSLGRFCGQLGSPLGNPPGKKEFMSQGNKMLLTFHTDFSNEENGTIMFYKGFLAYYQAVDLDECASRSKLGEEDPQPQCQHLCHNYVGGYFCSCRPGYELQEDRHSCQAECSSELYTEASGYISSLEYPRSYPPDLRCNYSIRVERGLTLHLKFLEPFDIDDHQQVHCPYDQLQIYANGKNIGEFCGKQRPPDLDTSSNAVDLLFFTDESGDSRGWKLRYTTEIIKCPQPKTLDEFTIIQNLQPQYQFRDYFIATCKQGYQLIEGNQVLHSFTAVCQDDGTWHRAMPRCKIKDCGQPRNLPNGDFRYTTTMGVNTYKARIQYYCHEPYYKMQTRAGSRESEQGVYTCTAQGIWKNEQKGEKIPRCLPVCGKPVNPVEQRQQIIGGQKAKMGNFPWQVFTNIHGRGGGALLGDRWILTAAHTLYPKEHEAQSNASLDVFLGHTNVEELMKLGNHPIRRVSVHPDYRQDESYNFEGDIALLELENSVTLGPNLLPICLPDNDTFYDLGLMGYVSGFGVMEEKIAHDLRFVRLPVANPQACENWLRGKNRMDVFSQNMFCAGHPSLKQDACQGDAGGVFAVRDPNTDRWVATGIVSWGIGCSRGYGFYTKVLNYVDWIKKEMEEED


Key:
[1] = biological target: T1, recombinant cynomolgus C1r2s2 tetramer; experiment: SPR (Biacore T200), 37 C, pH 7.4; cyC1r2s2 captured by IPN009, antibody as analyte
Protocol: (§1) The binding property of each sample at pH7.4 and pH6.0 was determined at 37° C. using BIACORE® T200 instrument (Cytiva). […] 20 mM ACES, 150 mM NaCl, 1.2 mM CaCl₂, 1 mg/mL BSA (not containing IgG), 1 mg/mL CMD, 0.05% Tween® 20, 0.005 w/v % NaN₃, pH7.4 or pH6.0 buffer was used as the running buffer. […] The antibody solution was added thereto at 30 μL/min for 120 seconds, the running buffer was then added at 30 μL/min for 180 seconds, and the dissociation constant (KD) of each antibody for hC1r2s2 and cyC1r2s2 was calculated. […] The sensor surface was regenerated every cycle, using 3 M MgCl2 (prepared in-house). The KD value was calculated using BIACORE® T200 evaluation software version 2.0 (Cytiva). The binding strengths under each pH condition were compared by dividing the KD value at pH6.0 with the KD value at pH7.4.

[2] = biological target: T2, recombinant human C1r2s2 tetramer; experiment: SPR (Biacore T200), 37 C; ratio of KD at pH 6.0 to KD at pH 7.4
Protocol: as §1

[3] = biological target: T1, recombinant cynomolgus C1r2s2 tetramer; experiment: as above
Protocol: as §1

[4] = biological target: T2, recombinant human C1r2s2 tetramer; experiment: SPR (Biacore T200), 37 C, pH 6.0; hC1r2s2 captured by IPN009, antibody as analyte
Protocol: as §1

[5] = biological target: T2, recombinant human C1r2s2 tetramer; experiment: SPR (Biacore T200), 37 C, pH 7.4; hC1r2s2 captured by IPN009, antibody as analyte
Protocol: as §1

[6] = biological target: T1, recombinant cynomolgus C1r2s2 tetramer; experiment: SPR (Biacore T200), 37 C, pH 6.0; cyC1r2s2 captured by IPN009, antibody as analyte
Protocol: as §1

Kd [1]	KD (pH 6.0)/KD (pH 7.4) [2]	KD (pH 6.0)/KD (pH 7.4) [3]	Kd [4]	Kd [5]	Kd [6]	Binder
0.252 nM	143	421	32.9 nM	0.23 nM	106 nM	COS0637pHv17-G1A3FcgSil+LowpI (antibody, V domains shown, VH 24, VL 55, CH 45, CL 23) VH: QVQLVESGGGVVQPGRSLRLSCAASGFTFSAYAMNWIRQPPGKGLEWIGLIYGSGHEFYASWAEERVTISVDTSKNQFSLKLSSVTAADTAVYYCARGRSKNYNSDFHLWGQGTLVTVSS VL: DIQMTQSPSSLSASVGDRVTITCQAHEILHDKKNLAWYQQKPGQPPKLLIYGASQRESGVPSRFSGSGSGTDFTLTISSLQPEDFATYYCHGEFPHSSADLNHFGQGTKVEIKR
0.492 nM	797	226	318 nM	0.399 nM	111 nM	COS0637pHv15-G1A3FcgSil+LowpI (antibody, V domains shown, VH 24, VL 59, CH 45 (G1A3FcgSil+LowpI), CL 23) VH: QVQLVESGGGVVQPGRSLRLSCAASGFTFSAYAMNWIRQPPGKGLEWIGLIYGSGHEFYASWAEERVTISVDTSKNQFSLKLSSVTAADTAVYYCARGRSKNYNSDFHLWGQGTLVTVSS VL: DIQMTQSPSSLSASVGDRVTITCQANEILHDKKNLAWYQQKPGQPPKLLIYGASTLESGVPSRFSGSGSGTDFTLTISSLQPEDFATYYCHGEFSYHSADLNTFGQGTKVEIKR
0.365 nM	71	83	19.3 nM	0.272 nM	30.3 nM	COS0637pHv8-G1A3FcgSil+LowpI (antibody, built from VH+CH and VL+CL) heavy: QVQLVESGGGVVQPGRSLRLSCAASGFTFSAYAMNWIRQPPGKGLEWIGLIYGSGHEFYASWAEERVTISVDTSKNQFSLKLSSVTAADTAVYYCARGRSKNYNSDFHLWGQGTLVTVSSASTKGPSVFPLAPSSRSTSESTAALGCLVKDYFPEPVTVSWNSGALTSGVHTFPAVLQSSGLYSLSSVVTVPSSSLGTQTYICNVNHKPSNTKVDKRVEPKSCDKTHTCPPCPAPELRRGPSVFLFPPKPKDTLMISRTPEVTCVVVDVSQEDPEVQFNWYVDGVEVHNAKTKPREEQYNSTYRVVSVLTVLHQDWLNGKEYKCKVSNKALPAPIEKTISKAKGQPREPQVYTLPPSQEEMTKNQVSLTCLVKGFYPSDIAVEWESNGQPENNYKTTPPVLDSDGSFFLYSKLTVDKSRWQEGNVFSCSVLHEALHAHTTRKELSLSP light: DIQMTQSPSSLSASVGDRVTITCQANQILHDKKNLAWYQQKPGQPPKLLIYGASTLESGVPSRFSGSGSGTDFTLTISSLQPEDFATYYCHGEFSYSSADLNTFGQGTKVEIKRTVAAPSVFIFPPSDEQLKSGTASVVCLLNNFYPREAKVQWKVDNALQSGNSQESVTEQDSKDSTYSLSSTLTLSKADYEKHKVYACEVTHQGLSSPVTKSFNRGEC
0.196 nM	161	465	29.2 nM	0.181 nM	91.2 nM	COS0637pHv16-G1A3FcgSil+LowpI (antibody, V domains shown, VH 36, VL 55, CH 45, CL 23) VH: QVQLVESGGGVVQPGRSLRLSCAASGFTFSAYTMNWIRQPPGKGLEWIGLIYGSGHEFYASWAEERVTISVDTSKNQFSLKLSSVTAADTAVYYCARGRSKNYNSDFHLWGQGTLVTVSS VL: DIQMTQSPSSLSASVGDRVTITCQAHEILHDKKNLAWYQQKPGQPPKLLIYGASQRESGVPSRFSGSGSGTDFTLTISSLQPEDFATYYCHGEFPHSSADLNHFGQGTKVEIKR
0.345 nM	50.2	67.5	12.5 nM	0.249 nM	23.3 nM	COS0637pHv8-TT91R (antibody, human IgG1, also called COS637pHv8-TT91R) heavy: QVQLVESGGGVVQPGRSLRLSCAASGFTFSAYAMNWIRQPPGKGLEWIGLIYGSGHEFYASWAEERVTISVDTSKNQFSLKLSSVTAADTAVYYCARGRSKNYNSDFHLWGQGTLVTVSSASTKGPSVFPLAPSSKSTSGGTAALGCLVKDYFPEPVTVSWNSGALTSGVHTFPAVLQSSGLYSLSSVVTVPSSSLGTQTYICNVNHKPSNTKVDKRVEPKSCDKTHTCPPCPAPEYLGGDSVFLFPPKPKDVLMISRTPEVTCVVIDVSHEDPEVKFNWYVDGVEVHNAKTKPREEQYNSTYRVVSVLPVLHRDWLNGKEYKCKVSNKALPKPIEKTISKAKGQRREPQVYTLPPSREEMTKNQVSLTCLVKGFYPSDIAVEWESNGQPENNYKTTPPVLDSDGSFFLYSKLTVDKSRWQQGNVFSCSVLHEALHAHTTRKELSLSP light: DIQMTQSPSSLSASVGDRVTITCQANQILHDKKNLAWYQQKPGQPPKLLIYGASTLESGVPSRFSGSGSGTDFTLTISSLQPEDFATYYCHGEFSYSSADLNTFGQGTKVEIKRTVAAPSVFIFPPSDEQLKSGTASVVCLLNNFYPREAKVQWKVDNALQSGNSQESVTEQDSKDSTYSLSSTLTLSKADYEKHKVYACEVTHQGLSSPVTKSFNRGEC

— patent US20240287163A1 (Chugai, published 2024)
